Test results published in article PMC5007650, “Crystal structure of the two-subunit tRNA m^1A58 methyltransferase TRM6-TRM61 from Saccharomyces cerevisiae” (Scientific Reports, 2016).

T1: TRM6 from Saccharomyces cerevisiae (S. cerevisiae, UniProt P41814 1-478)
T1 construct: TRM6, non-catalytic subunit of the tRNA m1A58 methyltransferase, S. cerevisiae, full length; A selenomethionine derivative was used for phasing only; also called TRM6 subunit; source: bacteria, expression plasmid pETDuet-TRM6-TRM61, purified as the TRM6-TRM61 complex (Ni2+-NTA, Superdex 200)
T1 sequence (looked up): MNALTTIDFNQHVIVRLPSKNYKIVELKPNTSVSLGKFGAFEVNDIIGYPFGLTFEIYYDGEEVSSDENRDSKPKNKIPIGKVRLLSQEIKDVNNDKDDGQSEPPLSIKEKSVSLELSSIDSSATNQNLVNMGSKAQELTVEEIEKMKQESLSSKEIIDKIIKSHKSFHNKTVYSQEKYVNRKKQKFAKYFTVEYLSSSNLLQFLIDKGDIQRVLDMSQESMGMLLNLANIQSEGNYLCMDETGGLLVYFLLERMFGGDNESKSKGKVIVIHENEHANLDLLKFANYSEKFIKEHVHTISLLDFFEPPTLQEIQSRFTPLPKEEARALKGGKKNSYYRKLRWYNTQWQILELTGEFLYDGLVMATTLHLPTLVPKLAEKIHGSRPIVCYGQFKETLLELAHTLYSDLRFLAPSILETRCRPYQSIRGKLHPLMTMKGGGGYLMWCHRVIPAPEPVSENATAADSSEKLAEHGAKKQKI


Legend:
[1] = target: T1, TRM6 from Saccharomyces cerevisiae; experiment: crystal structure; sitting-drop vapour diffusion at 293 K, 0.1 M HEPES pH 7.5, 2% MPD, 10% PEG 6000; apo TRM6-TRM61 and TRM6-TRM61 with SAM, each at 2.2 Å; heterotetramer from symmetry-related molecules; conditions: both partners purified
[2] = target: the molecule itself; experiment: as above

binding result [1] | Binder | binding result [2]
binds | TRM61 from Saccharomyces cerevisiae (enzyme, S. cerevisiae, UniProt P46959 1-383, looked up, TRM61, catalytic subunit of the tRNA m1A58 methyltransferase, S. cerevisiae, full length; also called TRM61 subunit; catalytic subunit; source: bacteria, expression plasmid pETDuet-TRM6-TRM61, purified as the TRM6-TRM61 complex (Ni2+-NTA, Superdex 200)) MSTNCFSGYKDLIKEGDLTLIWVSRDNIKPVRMHSEEVFNTRYGSFPHKDIIGKPYGSQIAIRTKGSNKFAFVHVLQPTPELWTLSLPHRTQIVYTPDSSYIMQRLNCSPHSRVIEAGTGSGSFSHAFARSVGHLFSFEFHHIRYEQALEEFKEHGLIDDNVTITHRDVCQGGFLIKKGDTTSYEFGNNETAASLNANVVFLDLPAPWDAIPHLDSVISVDEKVGLCCFSPCIEQVDKTLDVLEKYGWTDVEMVEIQGRQYESRRQMVRSLNDALERLRDIKRHKLQGVERRKRMFNNTIDSNDEKVGKRNEDGVPLTEKAKFNPFGKGSRIKEGDSNYKWKEVTKMEAEIKSHTSYLTFAFKVVNRSRDDEKVNEILRSTEK | –
– | TRM6-TRM61 heterodimer from Saccharomyces cerevisiae (complex, S. cerevisiae, TRM6, S. cerevisiae, full length; as the chain of m1; TRM61, S. cerevisiae, full length; as the chain of m2; 1:1 heterodimer of TRM6 and TRM61 (the asymmetric unit of the crystal); two of them form the 2:2 heterotetramer; also called TRM6-TRM61 holoenzyme; TRM6-TRM61 complex; source: bacteria, expression plasmid pETDuet-TRM6-TRM61, purified (Ni2+-NTA, Superdex 200)) chain 1: MNALTTIDFNQHVIVRLPSKNYKIVELKPNTSVSLGKFGAFEVNDIIGYPFGLTFEIYYDGEEVSSDENRDSKPKNKIPIGKVRLLSQEIKDVNNDKDDGQSEPPLSIKEKSVSLELSSIDSSATNQNLVNMGSKAQELTVEEIEKMKQESLSSKEIIDKIIKSHKSFHNKTVYSQEKYVNRKKQKFAKYFTVEYLSSSNLLQFLIDKGDIQRVLDMSQESMGMLLNLANIQSEGNYLCMDETGGLLVYFLLERMFGGDNESKSKGKVIVIHENEHANLDLLKFANYSEKFIKEHVHTISLLDFFEPPTLQEIQSRFTPLPKEEARALKGGKKNSYYRKLRWYNTQWQILELTGEFLYDGLVMATTLHLPTLVPKLAEKIHGSRPIVCYGQFKETLLELAHTLYSDLRFLAPSILETRCRPYQSIRGKLHPLMTMKGGGGYLMWCHRVIPAPEPVSENATAADSSEKLAEHGAKKQKI chain 2: MSTNCFSGYKDLIKEGDLTLIWVSRDNIKPVRMHSEEVFNTRYGSFPHKDIIGKPYGSQIAIRTKGSNKFAFVHVLQPTPELWTLSLPHRTQIVYTPDSSYIMQRLNCSPHSRVIEAGTGSGSFSHAFARSVGHLFSFEFHHIRYEQALEEFKEHGLIDDNVTITHRDVCQGGFLIKKGDTTSYEFGNNETAASLNANVVFLDLPAPWDAIPHLDSVISVDEKVGLCCFSPCIEQVDKTLDVLEKYGWTDVEMVEIQGRQYESRRQMVRSLNDALERLRDIKRHKLQGVERRKRMFNNTIDSNDEKVGKRNEDGVPLTEKAKFNPFGKGSRIKEGDSNYKWKEVTKMEAEIKSHTSYLTFAFKVVNRSRDDEKVNEILRSTEK | binds
